Publication PMC2756588

T1: Abp1, P15891
T1 sequence (P15891 535-592, looked up): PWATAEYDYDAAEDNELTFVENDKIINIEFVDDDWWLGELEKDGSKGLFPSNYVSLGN

T2: Bbc1, P47068
T2 sequence (P47068 1-78, looked up): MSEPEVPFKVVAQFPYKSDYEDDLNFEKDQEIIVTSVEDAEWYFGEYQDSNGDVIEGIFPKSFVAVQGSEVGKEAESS

T3: Boi1, P38041
T3 sequence (P38041 1-86, looked up): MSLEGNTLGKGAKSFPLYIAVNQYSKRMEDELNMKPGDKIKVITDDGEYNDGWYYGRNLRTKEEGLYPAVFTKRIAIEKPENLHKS

T4: Boi2, P39969
T4 sequence (P39969 32-116, looked up): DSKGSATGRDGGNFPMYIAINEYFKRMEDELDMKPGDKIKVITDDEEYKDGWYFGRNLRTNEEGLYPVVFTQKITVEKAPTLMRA

T5: Bud14, P27637
T5 sequence (P27637 247-328, looked up): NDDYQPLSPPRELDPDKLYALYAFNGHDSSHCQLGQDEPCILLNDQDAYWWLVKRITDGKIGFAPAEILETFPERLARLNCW

T6: Bzz1-1, P38822
T6 sequence (P38822 478-572, looked up): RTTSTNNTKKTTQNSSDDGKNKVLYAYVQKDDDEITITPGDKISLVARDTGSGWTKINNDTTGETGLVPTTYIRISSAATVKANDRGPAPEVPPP

T7: Bzz1-2, P38822
T7 sequence (P38822 568-633, looked up): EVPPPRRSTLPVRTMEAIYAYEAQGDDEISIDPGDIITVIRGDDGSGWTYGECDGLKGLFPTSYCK

T8: Cdc25, P04821
T8 sequence (P04821 50-136, looked up): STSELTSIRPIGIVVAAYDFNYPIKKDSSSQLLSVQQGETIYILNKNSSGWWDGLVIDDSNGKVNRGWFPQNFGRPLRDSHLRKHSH

T9: Cyk3, Q07533
T9 sequence (Q07533 1-83, looked up): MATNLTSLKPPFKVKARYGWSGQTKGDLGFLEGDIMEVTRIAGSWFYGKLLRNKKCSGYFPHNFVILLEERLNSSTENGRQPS

T10: Fus1, P11710
T10 sequence (P11710 432-512, looked up): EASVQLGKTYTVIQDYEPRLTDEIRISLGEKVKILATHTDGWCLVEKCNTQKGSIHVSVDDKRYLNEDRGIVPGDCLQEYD

T11: Hof1, Q05080
T11 sequence (Q05080 590-669, looked up): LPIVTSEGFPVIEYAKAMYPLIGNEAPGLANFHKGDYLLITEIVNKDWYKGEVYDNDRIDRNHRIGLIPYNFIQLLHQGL

T12: Hse1, P38753
T12 sequence (P38753 208-285, looked up): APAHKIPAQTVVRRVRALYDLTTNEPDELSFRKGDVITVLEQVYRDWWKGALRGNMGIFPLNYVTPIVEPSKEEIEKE

T13: Lsb1, P53281
T13 sequence (P53281 45-122, looked up): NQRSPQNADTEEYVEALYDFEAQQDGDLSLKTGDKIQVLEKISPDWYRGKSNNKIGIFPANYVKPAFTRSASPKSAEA

T14: Lsb3, P43603
T14 sequence (P43603 385-451, looked up): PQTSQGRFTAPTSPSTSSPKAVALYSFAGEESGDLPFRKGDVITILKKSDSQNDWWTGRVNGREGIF

T15: Lsb4, P32793
T15 sequence (P32793 402-468, looked up): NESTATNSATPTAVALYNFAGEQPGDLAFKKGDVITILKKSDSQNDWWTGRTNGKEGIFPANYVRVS

T16: Myo5, Q04439
T16 sequence (Q04439 1072-1160, looked up): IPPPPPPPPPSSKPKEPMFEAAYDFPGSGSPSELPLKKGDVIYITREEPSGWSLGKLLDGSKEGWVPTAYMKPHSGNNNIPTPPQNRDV

T17: Nbp2, Q12163
T17 sequence (Q12163 103-180, looked up): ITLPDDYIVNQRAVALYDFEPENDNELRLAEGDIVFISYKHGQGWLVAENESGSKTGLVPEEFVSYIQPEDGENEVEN

T18: Pex13, P80667
T18 sequence (P80667 295-386, looked up): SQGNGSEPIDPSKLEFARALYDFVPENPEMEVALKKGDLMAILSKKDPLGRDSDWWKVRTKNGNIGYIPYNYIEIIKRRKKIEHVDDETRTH

T19: Pin3, Q06449
T19 sequence (Q06449 53-122, looked up): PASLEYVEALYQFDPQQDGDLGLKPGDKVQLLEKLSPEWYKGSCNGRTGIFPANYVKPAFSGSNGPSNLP

T20: Sla1-2, P32790
T20 sequence (P32790 60-140, looked up): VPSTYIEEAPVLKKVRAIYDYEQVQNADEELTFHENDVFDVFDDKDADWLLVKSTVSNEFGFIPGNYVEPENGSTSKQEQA

T21: Sla1-3, P32790
T21 sequence (P32790 344-424, looked up): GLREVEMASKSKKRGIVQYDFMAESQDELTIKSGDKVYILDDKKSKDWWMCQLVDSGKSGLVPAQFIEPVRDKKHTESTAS


Molecular target: T1, Abp1, P15891
Experiment: SPOT array
Settings: median of control spots 935

Binder	SPOT intensity
PKMLPIPSKPTLFDL	173
GQYRRTIVIPRRFFT	184

Molecular target: T2, Bbc1, P47068
Experiment: SPOT array
Settings: median of control spots 796

Binder	SPOT intensity
PKMLPIPSKPTLFDL	0
GQYRRTIVIPRRFFT	258

Molecular target: Bem1-1, P29366
Sequence (P29366 55-141): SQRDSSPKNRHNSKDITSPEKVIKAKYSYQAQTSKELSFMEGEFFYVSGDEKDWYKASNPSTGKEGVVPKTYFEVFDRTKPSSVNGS
Experiment: SPOT array
Settings: median of control spots 4282

Binder	SPOT intensity
PKMLPIPSKPTLFDL	0
GQYRRTIVIPRRFFT	0

Molecular target: Bem1-2, P29366
Sequence (P29366 139-227): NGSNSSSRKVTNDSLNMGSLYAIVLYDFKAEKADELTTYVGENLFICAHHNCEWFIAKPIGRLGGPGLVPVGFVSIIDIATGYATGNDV
Experiment: SPOT array
Settings: median of control spots 4347

Binder	SPOT intensity
PKMLPIPSKPTLFDL	0
GQYRRTIVIPRRFFT	17

Molecular target: T3, Boi1, P38041
Experiment: SPOT array
Settings: median of control spots 1162

Binder	SPOT intensity
PKMLPIPSKPTLFDL	0
GQYRRTIVIPRRFFT	30

Molecular target: T4, Boi2, P39969
Experiment: SPOT array
Settings: median of control spots 1161

Binder	SPOT intensity
PKMLPIPSKPTLFDL	0
GQYRRTIVIPRRFFT	6

Molecular target: T5, Bud14, P27637
Experiment: SPOT array
Settings: median of control spots 956

Binder	SPOT intensity
PKMLPIPSKPTLFDL	0
GQYRRTIVIPRRFFT	13

Molecular target: T6, Bzz1-1, P38822
Experiment: SPOT array
Settings: median of control spots 4446

Binder	SPOT intensity
PKMLPIPSKPTLFDL	0
GQYRRTIVIPRRFFT	3

Molecular target: T7, Bzz1-2, P38822
Experiment: SPOT array
Settings: median of control spots 4538

Binder	SPOT intensity
PKMLPIPSKPTLFDL	0
GQYRRTIVIPRRFFT	0

Molecular target: T8, Cdc25, P04821
Experiment: SPOT array
Settings: median of control spots 969

Binder	SPOT intensity
PKMLPIPSKPTLFDL	0
GQYRRTIVIPRRFFT	156

Molecular target: T9, Cyk3, Q07533
Experiment: SPOT array
Settings: median of control spots 1451

Binder	SPOT intensity
PKMLPIPSKPTLFDL	0
GQYRRTIVIPRRFFT	4

Molecular target: T10, Fus1, P11710
Experiment: SPOT array
Settings: median of control spots 1200

Binder	SPOT intensity
PKMLPIPSKPTLFDL	0
GQYRRTIVIPRRFFT	48

Molecular target: GST
Experiment: SPOT array
Settings: median of control spots 978

Binder	SPOT intensity
PKMLPIPSKPTLFDL	1
GQYRRTIVIPRRFFT	5

Molecular target: T11, Hof1, Q05080
Experiment: SPOT array
Settings: median of control spots 4086

Binder	SPOT intensity
PKMLPIPSKPTLFDL	0
GQYRRTIVIPRRFFT	8

Molecular target: T12, Hse1, P38753
Experiment: SPOT array
Settings: median of control spots 1727

Binder	SPOT intensity
PKMLPIPSKPTLFDL	0
GQYRRTIVIPRRFFT	11

Molecular target: T13, Lsb1, P53281
Experiment: SPOT array
Settings: median of control spots 388

Binder	SPOT intensity
PKMLPIPSKPTLFDL	2
GQYRRTIVIPRRFFT	19

Molecular target: T14, Lsb3, P43603
Experiment: SPOT array
Settings: median of control spots 406

Binder	SPOT intensity
PKMLPIPSKPTLFDL	15
GQYRRTIVIPRRFFT	16

Molecular target: T15, Lsb4, P32793
Experiment: SPOT array
Settings: median of control spots 397

Binder	SPOT intensity
PKMLPIPSKPTLFDL	42
GQYRRTIVIPRRFFT	28

Molecular target: Myo3, P36006
Experiment: SPOT array
Settings: median of control spots 468

Binder	SPOT intensity
PKMLPIPSKPTLFDL	36
GQYRRTIVIPRRFFT	17

Molecular target: T16, Myo5, Q04439
Experiment: SPOT array
Settings: median of control spots 471

Binder	SPOT intensity
PKMLPIPSKPTLFDL	52
GQYRRTIVIPRRFFT	2

Molecular target: T17, Nbp2, Q12163
Experiment: SPOT array
Settings: median of control spots 357

Binder	SPOT intensity
PKMLPIPSKPTLFDL	19
GQYRRTIVIPRRFFT	120

Molecular target: T18, Pex13, P80667
Experiment: SPOT array
Settings: median of control spots 1341

Binder	SPOT intensity
PKMLPIPSKPTLFDL	52
GQYRRTIVIPRRFFT	20

Molecular target: T19, Pin3, Q06449
Experiment: SPOT array
Settings: median of control spots 2171

Binder	SPOT intensity
PKMLPIPSKPTLFDL	69
GQYRRTIVIPRRFFT	18

Molecular target: Rvs167, P39743
Sequence (P39743 419-482): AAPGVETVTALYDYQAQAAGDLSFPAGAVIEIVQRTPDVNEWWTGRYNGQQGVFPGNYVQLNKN
Experiment: SPOT array
Settings: median of control spots 2707

Binder	SPOT intensity
PKMLPIPSKPTLFDL	0
GQYRRTIVIPRRFFT	0

Molecular target: Sho1, P40073
Sequence (P40073 287-367): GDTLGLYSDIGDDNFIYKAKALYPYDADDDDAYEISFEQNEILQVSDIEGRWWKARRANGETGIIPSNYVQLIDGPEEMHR
Experiment: SPOT array
Settings: median of control spots 1148

Binder	SPOT intensity
PKMLPIPSKPTLFDL	164
GQYRRTIVIPRRFFT	124

Molecular target: T20, Sla1-2, P32790
Experiment: SPOT array
Settings: median of control spots 712

Binder	SPOT intensity
PKMLPIPSKPTLFDL	3
GQYRRTIVIPRRFFT	8

Molecular target: T21, Sla1-3, P32790
Experiment: SPOT array
Settings: median of control spots 5475

Binder	SPOT intensity
PKMLPIPSKPTLFDL	0
GQYRRTIVIPRRFFT	58
